Biological target: Aβ_(1-42)
Test: thioflavin T fluorescence aggregation kinetics

Aβ_(1-42) (peptide)
k+k2 (product of the rate constants of elongation and secondary nucleation): 1e+11 M^−3s^−2
